In patent US20250320292A1 (PANDION OPERATIONS, published 2025):
Blank lines part the entries; values can stand above or below the binder they belong to.

What was measured:
Mouse Robo2 [1] = target: T1, Mouse Robo2 (mouse, UniProt Q7TPD3 22-863, limits assumed); experiment: BLI (Octet RED96); CDAB1 captured on anti-human Fc biosensor, mouse Robo2 titrated two-fold from 50 nM
T1 construct: also called mRobo2
T1 sequence: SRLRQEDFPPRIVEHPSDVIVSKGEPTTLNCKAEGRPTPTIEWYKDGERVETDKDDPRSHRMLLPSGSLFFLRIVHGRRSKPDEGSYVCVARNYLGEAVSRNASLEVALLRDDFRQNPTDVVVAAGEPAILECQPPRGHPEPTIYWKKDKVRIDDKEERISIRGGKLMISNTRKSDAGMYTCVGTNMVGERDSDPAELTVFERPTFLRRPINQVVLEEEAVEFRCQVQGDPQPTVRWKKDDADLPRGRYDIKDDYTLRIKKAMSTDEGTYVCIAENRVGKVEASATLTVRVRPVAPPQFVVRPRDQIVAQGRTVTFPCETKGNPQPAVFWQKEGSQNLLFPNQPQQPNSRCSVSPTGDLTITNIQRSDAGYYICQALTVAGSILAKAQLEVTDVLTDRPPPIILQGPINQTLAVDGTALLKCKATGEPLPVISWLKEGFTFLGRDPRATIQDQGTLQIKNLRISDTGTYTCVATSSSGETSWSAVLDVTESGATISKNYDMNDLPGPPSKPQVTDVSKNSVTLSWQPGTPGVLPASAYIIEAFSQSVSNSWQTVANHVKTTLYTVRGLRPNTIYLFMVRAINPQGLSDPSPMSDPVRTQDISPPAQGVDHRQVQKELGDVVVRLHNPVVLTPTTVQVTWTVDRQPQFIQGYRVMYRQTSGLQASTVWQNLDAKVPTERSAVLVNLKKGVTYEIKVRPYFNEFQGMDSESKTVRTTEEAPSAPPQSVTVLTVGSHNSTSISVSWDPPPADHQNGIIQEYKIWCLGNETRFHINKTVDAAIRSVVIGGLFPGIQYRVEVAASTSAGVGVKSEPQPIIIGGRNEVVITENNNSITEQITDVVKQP
Experimental: (§1) Anti-human Fc (for CDAB1, CDAB5, Fc-rat COL4A3) or anti-Streptavidin (for CDAB3) or HIS1K (COL4A3-His) biosensors were equilibrated in assay buffer (1% BSA in 1×PBS with 0.05% Tween-20) for 10 minutes before the experiment was setup. Immobilizing reagents were diluted to 4 μg/mL in assay buffer and 200 μL pipetted to 96 well plate. Mouse Robo2 or TAs were titrated down, two-fold dilutions (starting at 50 nM as the highest concentration, 7-point dilution). The experiment was conducted using data acquisition software version 10.0 for OCTET96 RED. Test articles were captured using anti-human Fc biosensors for 180 s. Biosensors loaded with test articles were then equilibrated in assay buffer for 120 s. Association was performed in wells with mRobo2 or TA for 180 seconds. Dissociation was performed in wells with assay buffer for 180 s.

recROBO2 = experiment: cell-based or functional assay
Chain of recROBO2 (Q9HCK4 whole entry): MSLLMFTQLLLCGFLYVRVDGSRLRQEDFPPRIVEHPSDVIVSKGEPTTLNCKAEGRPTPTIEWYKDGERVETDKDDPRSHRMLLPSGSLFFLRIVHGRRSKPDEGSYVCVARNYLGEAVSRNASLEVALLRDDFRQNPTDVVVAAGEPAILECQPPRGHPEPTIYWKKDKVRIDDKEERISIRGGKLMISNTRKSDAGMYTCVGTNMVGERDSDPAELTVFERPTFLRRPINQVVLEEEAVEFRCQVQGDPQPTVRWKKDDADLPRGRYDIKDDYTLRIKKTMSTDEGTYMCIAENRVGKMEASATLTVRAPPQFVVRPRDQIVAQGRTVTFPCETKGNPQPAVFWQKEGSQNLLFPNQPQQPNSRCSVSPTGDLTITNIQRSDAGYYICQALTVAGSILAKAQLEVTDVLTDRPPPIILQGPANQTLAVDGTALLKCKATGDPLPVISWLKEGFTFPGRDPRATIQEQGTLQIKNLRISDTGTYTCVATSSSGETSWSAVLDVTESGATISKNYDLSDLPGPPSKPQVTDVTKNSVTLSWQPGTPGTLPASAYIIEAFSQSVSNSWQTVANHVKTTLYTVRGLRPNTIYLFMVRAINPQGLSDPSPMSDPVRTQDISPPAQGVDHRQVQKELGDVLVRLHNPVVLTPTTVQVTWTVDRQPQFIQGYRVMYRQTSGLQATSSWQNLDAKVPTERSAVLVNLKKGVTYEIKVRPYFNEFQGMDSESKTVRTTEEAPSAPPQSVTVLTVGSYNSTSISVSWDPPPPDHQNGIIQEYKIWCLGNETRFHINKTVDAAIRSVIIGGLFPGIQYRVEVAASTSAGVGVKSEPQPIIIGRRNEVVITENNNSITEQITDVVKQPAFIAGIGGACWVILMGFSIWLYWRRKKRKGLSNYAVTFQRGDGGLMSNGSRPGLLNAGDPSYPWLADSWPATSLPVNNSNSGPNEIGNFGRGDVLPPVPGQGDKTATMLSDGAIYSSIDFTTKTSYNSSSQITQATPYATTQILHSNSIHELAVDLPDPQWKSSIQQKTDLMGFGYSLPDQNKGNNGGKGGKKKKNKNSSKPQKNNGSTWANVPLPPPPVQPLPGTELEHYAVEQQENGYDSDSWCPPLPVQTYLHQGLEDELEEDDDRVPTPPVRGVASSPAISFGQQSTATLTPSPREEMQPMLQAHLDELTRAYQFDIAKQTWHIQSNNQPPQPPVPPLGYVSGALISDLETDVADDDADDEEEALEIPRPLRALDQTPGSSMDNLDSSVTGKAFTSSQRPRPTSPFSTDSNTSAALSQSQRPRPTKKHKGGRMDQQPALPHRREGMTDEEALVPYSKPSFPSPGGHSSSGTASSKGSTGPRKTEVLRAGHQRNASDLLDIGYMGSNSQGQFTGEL

Mouse Robo2 [2] = target: T1, Mouse Robo2; experiment: BLI (Octet RED96); CDAB3 on anti-Streptavidin biosensor, mouse Robo2 titrated two-fold from 50 nM
Experimental: as §1

Mouse Robo2 [3] = target: T1, Mouse Robo2; experiment: BLI (Octet RED96); test article captured on biosensor (method names CDAB5 on anti-human Fc, result names CDAB6), mouse Robo2 titrated from 50 nM
Experimental: as §1

Kd (Mouse Robo2 [1]): 1.38 nM
koff (Mouse Robo2 [1]): 0.00129 s⁻¹
kon (Mouse Robo2 [1]): 938000 M⁻¹ s⁻¹
tethered IC50(nM), inhibition of C5b-9a deposition (Hycult classical complement mouse assay, tethered format) (recROBO2): 1.5 nM
B1: CDAB1 (antibody, human IgG1, kappa)
heavy: EVQLVQSGAEVKKPGASVKVSCKASGYTFTGYYMHWVRQAPGQGLEWMGWINPKNGDTEFPQKFQGRVTMTRDTSITTAYMDLSRLRSDDTAVYYCARESGDDAFDIWGQGTMVTVSSASTKGPSVFPLAPSSKSTSGGTAALGCLVKDYFPEPVTVSWNSGALTSGVHTFPAVLQSSGLYSLSSVVTVPSSSLGTQTYICNVNHKPSNTKVDKKVEPKSCDKTHTCPPCPAPEAAGAPSVFLFPPKPKDTLMISRTPEVTCVVVDVSHEDPEVKFNWYVDGVEVHNAKTKPREEQYNSTYRVVSVLTVLHQDWLNGKEYKCKVSNKALPAPIEKTISKAKGQPREPQVYTLPPSREEMTKNQVSLTCLVKGFYPSDIAVEWESNGQPENNYKTTPPVLDSDGSFFLYSKLTVDKSRWQQGNVFSCSVMHEALHNHYTQKSLSLSPGGGGGSDCGPPPDIPNARPILGRHSKFAEQSKVAYSCNNGFKQVPDKSNIVVCLENGQWSSHETFCEKSCVAPERLSFASLKKEYLNMNFFPVGTIVEYECRPGFRKQPPLPGKATCLEDLVWSPVAQFCKKKSCPNPKDLDNGHINIPTGILFGSEINFSCNPGYRLVGVSSTFCSVTGNTVDWDDEFPVCTEIHCPEPPKINNGIMRGESDSYTYSQVVTYSCDKGFILVGNASIYCTVSKSDVGQWSSPPPRCIEKSKVPTKKPTINVPSTGTPSTPQKPTTESVPNPGDQPTPQKPSTVKVSATQHVPVTKTTVRHPIRTSTDKGEPNTG
light: DIVMTQSPSSLSASVGDRVTITCRASQSISSYLNWYQQKPGKAPKLLIYAASSLQSGVPSRFSGSGSGTDFTLTISSLQPEDFATYYCQQSVGLFFGGGTKVEIKRTVAAPSVFIFPPSDEQLKSGTASVVCLLNNFYPREAKVQWKVDNALQSGNSQESVTEQDSKDSTYSLSSTLTLSKADYEKHKVYACEVTHQGLSSPVTKSFNRGEC
notes: Anti-ROBO2 tether in IgG1 format with mouse CD55 ECD fused to the C-terminus of the heavy chain; also called CDAB1-HC; CDAB1-LC

Kd (Mouse Robo2 [2]): 13.2 nM
koff (Mouse Robo2 [2]): 0.00291 s⁻¹
kon (Mouse Robo2 [2]): 221000 M⁻¹ s⁻¹
B2: CDAB3 (scFv)
chain: DCGPPPDIPNARPILGRHSKFAEQSKVAYSCNNGFKQVPDKSNIVVCLENGQWSSHETFCEKSCVAPERLSFASLKKEYLNMNFFPVGTIVEYECRPGFRKQPPLPGKATCLEDLVWSPVAQFCKKKSCPNPKDLDNGHINIPTGILFGSEINFSCNPGYRLVGVSSTFCSVTGNTVDWDDEFPVCTEIHCPEPPKINNGIMRGESDSYTYSQVVTYSCDKGFILVGNASIYCTVSKSDVGQWSSPPPRCIEKSKVPTKKPTINVPSTGTPSTPQKPTTESVPNPGDQPTPQKPSTVKVSATQHVPVTKTTVRHPIRTSTDKGEPNTGGGGGSGGGGSGGGGSGGGGSEVQLVQSGAEVKKPGASVKVSCKASGYTFTGYYMHWVRQAPGQGLEWMGWINPKNGDTEFPQKFQGRVTMTRDTSITTAYMDLSRLRSDDTAVYYCARESGDDAFDIWGQGTMVTVSSGGGGGSGGGGSGGGGSDIVMTQSPSSLSASVGDRVTITCRASQSISSYLNWYQQKPGKAPKLLIYAASSLQSGVPSRFSGSGSGTDFTLTISSLQPEDFATYYCQQSVGLFFGGGTKVEIKHHHHHH
notes: Fc-less construct with the same V domains as CDAB1; It was loaded on 'anti-Streptavidin' biosensors, and no biotinylation is described

Kd (Mouse Robo2 [3]): 7.13 nM
koff (Mouse Robo2 [3]): 0.00294 s⁻¹
kon (Mouse Robo2 [3]): 412000 M⁻¹ s⁻¹
B3: CDAB6 (Fc fusion)
chain: DCGPPPDIPNARPILGRHSKFAEQSKVAYSCNNGFKQVPDKSNIVVCLENGQWSSHETFCEKSCVAPERLSFASLKKEYLNMNFFPVGTIVEYECRPGFRKQPPLPGKATCLEDLVWSPVAQFCKKKSCPNPKDLDNGHINIPTGILFGSEINFSCNPGYRLVGVSSTFCSVTGNTVDWDDEFPVCTEIHCPEPPKINNGIMRGESDSYTYSQVVTYSCDKGFILVGNASIYCTVSKSDVGQWSSPPPRCIEKSKVPTKKPTINVPSTGTPSTPQKPTTESVPNPGDQPTPQKPSTVKVSATQHVPVTKTTVRHPIRTSTDKGEPNTGGGGGSGGGGSGGGGSGGGGSDKTHTCPPCPAPEAAGAPSVFLFPPKPKDTLMISRTPEVTCVVVDVSHEDPEVKFNWYVDGVEVHNAKTKPREEQYNSTYRVVSVLTVLHQDWLNGKEYKCKVSNKALPAPIEKTISKAKGQPREPQVYTLPPSREEMTKNQVSLTCLVKGFYPSDIAVEWESNGQPENNYKTTPPVLDSDGSFFLYSKLTVDKSRWQQGNVFSCSVMHEALHNHYTQKSLSLSPGGGGGSGGGGSGGGGSGGGGSEVQLVQSGAEVKKPGASVKVSCKASGYTFTGYYMHWVRQAPGQGLEWMGWINPKNGDTEFPQKFQGRVTMTRDTSITTAYMDLSRLRSDDTAVYYCARESGDDAFDIWGQGTMVTVSSGGGGGSGGGGSGGGGSDIVMTQSPSSLSASVGDRVTITCRASQSISSYLNWYQQKPGKAPKLLIYAASSLQSGVPSRFSGSGSGTDFTLTISSLQPEDFATYYCQQSVGLFFGGGTKVEIK
notes: Same V domains as CDAB1
